In patent US20190262327A1, “COMBINATION OF A BACE INHIBITOR AND AN ANTIBODY OR ANTIGEN-BINDING FRAGMENT FOR THE TREATMENT OF A DISORDER ASSOCIATED WITH THE ACCUMULATION OF AMYLOID BETA” (ASTRAZENECA AB, priority 2016, published 2019):
Positions count from the first letter of the chain named.

Experiments:
[1] = biological target: T1, human Amyloid beta 1-42 peptide (Homo sapiens, UniProt P05067); assay: Abet0144-GL HTRF epitope competition assay; format: binding; conditions: purified competitor scFv; inhibition of human Amyloid beta 1-42 : Abet0144-GL IgG1-TM complex
T1 construct: biotinylated human Amyloid beta 1-42 peptide (rpeptide, USA; cat: A1117); purchased rPeptide, USA A1117; host or cells: synthetic peptide
T1 sequence (P05067 672-713): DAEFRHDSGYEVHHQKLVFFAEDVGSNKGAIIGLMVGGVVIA
Experimental: Two thousand and twenty four scFv chosen at random from selection rounds 3 and 4 of the targeted mutagenesis approach described in section 1.2 were expressed in bacteria to produce unpurified periplasmic scFv. Those scFv capable of binding synthetic human amyloid beta 1-42 peptide via the same epitope as Abet0144-GL IgG1-TM were elucidated in a competition format assay, using the HTRF™ platform. Specifically, fluorescence resonance energy transfer (FRET) was measured between streptavidin cryptate (associated with biotinylated amyloid beta 1-42 peptide) and anti-human Fc XL665 (associated with Abet0144-GL IgG1-TM) in the presence of a single concentration of each unpurified periplasmic test scFv.
A ‘Total’ binding signal was determined by analysing the binding of Abet0144-GL IgG1-TM to synthetic human Amyloid beta 1-42 peptide in the absence of competitor peptide. The ‘Sample’ signals were derived from analysing the binding of Abet0144-GL IgG1-TM to synthetic human Amyloid beta 1-42 peptide in the presence of a test scFv sample. Finally, a ‘Cryptate Blank’ signal was determined by analysing the fluorescence mediated by the detection reagent cocktail alone.
Unpurified periplasmic scFv were supplied in sample buffer consisting of 50 mM MOPS, pH 7.4, 0.5 mM EDTA, and 0.5 M sucrose. […] Assay plates were sealed and then incubated for 3 hours at room temperature in the dark, prior to measuring time-resolved fluorescence at 620 and 665 nm emission wavelengths on a fluorescence plate reader.
Data were analysed by calculating % Delta F values for each sample. % Delta F was determined according to equation 1. […]
Data were again analysed by calculating the % Delta F and % Total binding values for each sample. In addition, a % Inhibition value for each concentration of purified scFv was also calculated as described in Equation 3: […]

[2] = biological target: T1, human Amyloid beta 1-42 peptide; assay: Surface Plasmon Resonance kinetic profiling of purified scFv (ProteOn); format: binding; conditions: biotinylated human Amyloid beta 1-42 on streptavidin chip
From the text: Surface Plasmon Resonance was used to analyse the purified scFv clones that had shown significant improvement in binding affinity for human Amyloid beta 1-42 peptide over the parent sequence, Abet0144-GL, in the HTRF™ epitope competition assay (sections 1.3-1.6). Briefly, the ProteOn Protein Interaction Array System (BioRad, USA) was used to assess the kinetic parameters of the interaction between each purified scFv and synthetically produced human Amyloid beta 1-42 peptide. These experiments were performed essentially as described by Karlsson et al. (Karlsson et al., 1991).
The affinity of binding between each test scFv and human Amyloid beta 1-42 was estimated using assays in which biotinylated synthetic human Amyloid beta 1-42 peptide (rPeptide, USA; cat: Al 117) was non-covalently bound via a biotin/streptavidin interaction to a proprietary streptavidin chip (NTA 176-5021) at five different surface densities. The chip surface was regenerated between cycles by a single 60 second injection of 10 mM Glycine pH 2.0 to remove scFv bound to the peptide.
Each scFv at 100-200 nM was sequentially passed over the peptide surface for a sufficient amount of time to observe sensorgrams that could be fitted to an appropriate binding model with confidence. An irrelevant scFv blank was subtracted from the main dataset to reduce the impact of any buffer artefacts or non-specific binding effects. An appropriate binding model was then fitted to the data.

B1: Abet0380: optimized anti-Aβ1-42 clone derived from Abet0144-GL, non-germlined (protein)
scFv (part 1 of 2): EVQLLESGGGLVQPGGSLRLSCAASMGNFNYQTMWWVRQAPGRGLEWVSVIGKTNENIAYADSVKGRFTISRDNSKNTLYLQMNSLRAEDTAVYYCAREWMDHSRPYYYYGMDVWGQGTLVTVSS
scFv (part 2 of 2): SYELTQPPSVSVSPGQTASITCSGHNLEDKFASWYQQKPGQSPVLVIYRDDKRPSGIPERFSASNSGHTATLTISGTQATDEADYYCSSQDTVTRVFGGGTKLTVL
modifications: left off: small tags and cut ends
notes: optimized anti-Aβ1-42 clone derived from Abet0144-GL, non-germlined
With B1 the “potency over the parent Abet0144-GL scFv sequence (FIG. 1)” value [1] was “significant improvement in potency”, the “ka” value [2] was 193000 M⁻¹ s⁻¹ and the “kd” value [2] was 2.85e-05 s⁻¹. The “ka” value ([2]; listed as Abet0380 scFv) was 193000 M⁻¹ s⁻¹ and the “kd” value ([2]; listed as Abet0380 scFv) was 2.85e-05 s⁻¹.

B2: Abet0321b: optimized anti-Aβ1-42 clone derived from Abet0144-GL (protein)
scFv (part 1 of 2): EVQLLESGGGLVQPGGSLRLSCAASAYHSNHDPMWWVRQAPGKGLEWVSVIGSSGGTTAYADSVKGRFTISRDNSKNTLYLQMNSLRAEDTAVYYCAREWMDHSRPYYYYGMDVWGQGTLVTVSS
scFv (part 2 of 2): B1 scFv (part 2 of 2) with V46I
modifications: left off: small tags and cut ends
notes: optimized anti-Aβ1-42 clone derived from Abet0144-GL
For B2, the “ka” value [2] was 150000 M⁻¹ s⁻¹ and the “kd” value [2] was 3.33e-05 s⁻¹.

B3: Abet0379: optimized anti-Aβ1-42 clone derived from Abet0144-GL (protein)
scFv (part 1 of 2): EVQLLESGGGLVQPGGSLRLSCAASGFDFAETPLWWVRQAPGERLEWVSVIGSNQNKTAYADSVKGRFTISRDNSKDTLYLQMNSLRAEDTAVYYCAREWMDHSRPYYYYGMDVWGQGTLVTVSS
scFv (part 2 of 2): B1 scFv (part 2 of 2) with S1Q, Y2S, E3V, P39S, E82G, S88A, S89T, T92N, V93F
modifications: left off: small tags and cut ends
notes: as for B2
In the case of B3, the “ka” value [2] is reported as 134000 M⁻¹ s⁻¹ and the “kd” value [2] is reported as 4.39e-05 s⁻¹.

B4: Abet0319: optimized anti-Aβ1-42 clone derived from Abet0144-GL (protein)
scFv (part 1 of 2): B2 scFv (part 1 of 2) with A26V, Y27S, H28V, S29Y, H31K, P33T, A59V
scFv (part 2 of 2): B1 scFv (part 2 of 2) with L27I, E28M, F31W, A32V, Q41R, V44A
modifications: left off: small tags and cut ends
notes: as for B2
For B4, the “ka” value [2] was 329000 M⁻¹ s⁻¹ and the “kd” value [2] was 0.000129 s⁻¹.

B5: Abet0383: optimized anti-Aβ1-42 clone derived from Abet0144-GL (protein)
scFv (part 1 of 2): EVQLLESGGGLVQPGGSLKLSCAASGFTFDWYPMWWVRQAPGKRLEWISVIGADNAKIAYADSVKGRFTISRDNSKNTLYLQMNSLRAEDTAVYYCAREWMGHSRPYYYYGMDVWGQGTPVTVSS
scFv (part 2 of 2): B1 scFv (part 2 of 2) with E28G
modifications: left off: small tags and cut ends
notes: as for B2
In the case of B5, the “ka” value [2] is reported as 181000 M⁻¹ s⁻¹ and the “kd” value [2] is reported as 3.94e-05 s⁻¹.

B6: Abet0369: optimized anti-Aβ1-42 clone derived from Abet0144-GL (protein)
scFv (part 1 of 2): EVQLLESGGGLVQPGGSLRLSCAASSFQISKNTMWWVRRAPGKGLEWVSVIGKDETRFNYADSVKGRFTISRDNSKNTLYLQMNSLRAEDTAVYYCAREWMDHSRPYYYYGMDVWGQGTLVTVSS
scFv (part 2 of 2): B1 scFv (part 2 of 2) with E3G, H25R, L27I, E28G, K30S, F31W, A32V, S33A
modifications: left off: small tags and cut ends
notes: as for B2
In the case of B6, the “potency over the parent Abet0144-GL scFv sequence (FIG. 1)” value [1] is reported as “significant improvement in potency”, the “ka” value [2] is reported as 327000 M⁻¹ s⁻¹ and the “kd” value [2] is reported as 4.34e-05 s⁻¹.

B7: Abet0381: optimized anti-Aβ1-42 clone derived from Abet0144-GL (protein)
scFv (part 1 of 2): EVQLLESGGGLVQPGGSLRLSCAASSPSFPRETMWWVRQAPGKGLEWVSVIGTQPNRLTYADSVKGRFTISRDNSKNTLYLQMNSLRAEDTAVYYCAREWMDHSRPYYYYGIDVWGQGTLVTVSP
scFv (part 2 of 2): B1 scFv (part 2 of 2) with V12A, A32V, D84N, V96A
modifications: left off: small tags and cut ends
notes: as for B2
In the case of B7, the “ka” value [2] is reported as 213000 M⁻¹ s⁻¹ and the “kd” value [2] is reported as 5.14e-05 s⁻¹.

B8: Abet0377: optimized anti-Aβ1-42 clone from quaternary library (protein)
scFv (part 1 of 2): B1 scFv (part 1 of 2) with M26G, G27F, Y31E, M34L, R43K, K53V, T54G, N55T, E56K, S63T
scFv (part 2 of 2): B1 scFv (part 2 of 2) with L27T, D29H, F31W, A32I, S64T
modifications: left off: small tags and cut ends
notes: optimized anti-Aβ1-42 clone from quaternary library
In the case of B8, the “potency over the parent Abet0144-GL scFv sequence (FIG. 1)” value [1] is reported as “significant improvement in potency”, the “ka” value [2] is reported as 196000 M⁻¹ s⁻¹ and the “kd” value [2] is reported as 3.02e-05 s⁻¹.
